In article PMC6636998, “Functional cross-talk between allosteric effects of activating and inhibiting ligands underlies PKM2 regulation” (eLife, 2019):

Biological target: the molecule itself
Assay: native MS; nano-ESI, PKM2 in 200 mM ammonium acetate pH 6.8, with added saturating FBP (10 µM FBP to 10 µM PKM2; 10:1 FBP:PKM2 for the AlloHub mutants); also with 300 µM Phe added before or after FBP

| Protein | binding result | stoichiometry N |
| --- | --- | --- |
| PKM2(I124G) (enzyme, pyruvate kinase M2 (PKM2), Homo sapiens, Uniprot ID P14618-1; pET28a-His-PKM2(I124G), made from pET28a-His-PKM2(WT); also called AlloHubM I124G; source: E. coli BL21(DE3)pLysS, purified (HisTrap IMAC, thrombin cleavage, Superdex 200 SEC); not shown: His6, N-terminal, cleaved) not shown | binds | – |
| PKM2(F244V) (enzyme, pyruvate kinase M2 (PKM2), Homo sapiens, Uniprot ID P14618-1; pET28a-His-PKM2(F244V), made from pET28a-His-PKM2(WT); also called AlloHubM F244V; source: E. coli BL21(DE3)pLysS, purified (HisTrap IMAC, thrombin cleavage, Superdex 200 SEC); not shown: His6, N-terminal, cleaved) not shown | binds | – |
| PKM2(A327S) (enzyme, pyruvate kinase M2 (PKM2), Homo sapiens, Uniprot ID P14618-1; pET28a-His-PKM2(A327S), made from pET28a-His-PKM2(WT); also called AlloHubM A327S; source: E. coli BL21(DE3)pLysS, purified (HisTrap IMAC, thrombin cleavage, Superdex 200 SEC); not shown: His6, N-terminal, cleaved) not shown | – | 4 |
| PKM2(C358A) (enzyme, pyruvate kinase M2 (PKM2), Homo sapiens, Uniprot ID P14618-1; pET28a-His-PKM2(C358A), made from pET28a-His-PKM2(WT); also called AlloHubM C358A; source: E. coli BL21(DE3)pLysS, purified (HisTrap IMAC, thrombin cleavage, Superdex 200 SEC); not shown: His6, N-terminal, cleaved) not shown | – | 4 |
| PKM2(K305Q) (enzyme, pyruvate kinase M2 (PKM2), Homo sapiens, Uniprot ID P14618-1; pET28a-His-PKM2(K305Q), made from pET28a-His-PKM2(WT); also called AlloHubM K305Q; source: E. coli BL21(DE3)pLysS, purified (HisTrap IMAC, thrombin cleavage, Superdex 200 SEC); not shown: His6, N-terminal, cleaved) not shown | – | 4 |
